Test results from the supplement of paper PMC11246515.
± gives the standard deviation of the averaged measurements.

Test: total protein half-life in vivo (active degradation + dilution); higher = more stable protein
[1] = E. coli NCM3722 delta-clpP delta-lon delta-hslV, growth: N-lim chemostat, doubling time 6 h
[2] = E. coli NCM3722 delta-clpP, growth: N-lim chemostat, doubling time 6 h
[3] = E. coli NCM3722 delta-hslV, growth: N-lim chemostat, doubling time 6 h
[4] = E. coli NCM3722 delta-smpB, growth: N-lim chemostat, doubling time 6 h
[5] = wild type E. coli NCM3722, growth: C-lim chemostat, doubling time 3 h
[6] = wild type E. coli NCM3722, growth: C-lim chemostat, doubling time 6 h
[7] = wild type E. coli NCM3722, growth: C-lim chemostat, doubling time 12 h
[8] = wild type E. coli NCM3722, growth: N-lim chemostat, doubling time 6 h
[9] = wild type E. coli NCM3722, growth: N-lim chemostat, doubling time 12 h
[10] = wild type E. coli NCM3722, growth: P-lim chemostat, doubling time 6 h
[11] = wild type E. coli NCM3722, growth: P-lim chemostat, doubling time 12 h
[12] = E. coli NCM3722 delta-lon, growth: N-lim chemostat, doubling time 6 h

Sequence	total protein half-life in vivo [1] [h]	total protein half-life in vivo [2] [h]	total protein half-life in vivo [3] [h]	total protein half-life in vivo [4] [h]	total protein half-life in vivo [5] [h]	total protein half-life in vivo [6] [h]	total protein half-life in vivo [7] [h]	total protein half-life in vivo [8] [h]	total protein half-life in vivo [9] [h]	total protein half-life in vivo [10] [h]	total protein half-life in vivo [11] [h]	total protein half-life in vivo [12] [h]
MPHSLFSTDTDLTAENLLRLPAEFGCPVWVYDAQIIRRQIAALKQFDVVRFAQKACSNIHILRLMREQGVKVDSVSLGEIERALAAGYNPQTHPDDIVFTADVIDQATLERVSELQIPVNAGSVDMLDQLGQVSPGHRVWLRVNPGFGHGHSQKTNTGGENSKHGIWYTDLPAALDVIQRHHLQLVGIHMHIGSGVDYAHLEQVCGAMVRQVIEFGQDLQAISAGGGLSVPYQQGEEAVDTEHYYGLWNAAREQIARHLGHPVKLEIEPGRFLVAQSGVLITQVRSVKQMGSRHFVLVDAGFNDLMRPAMYGSYHHISALAADGRSLEHAPTVETVVAGPLCESGDVFTQQEGGNVETRALPEVKAGDYLVLHDTGAYGASMSSNYNSRPLLPEVLFDNGQARLIRRRQTIEELLALELL	3.43 ± 0.39	2.81 ± 0.36	2.41 ± 0.37	2.06 ± 0.69	2.91 ± 0.14	4.76 ± 0.92	8.09 ± 0.86	2.53 ± 0.12	3.6 ± 0.33	5.29 ± 0.3	9.66 ± 0.16	
MPHSYDYDAIVIGSGPGGEGAAMGLVKQGARVAVIERYQNVGGGCTHWGTIPSKALRHAVSRIIEFNQNPLYSDHSRLLRSSFADILNHADNVINQQTRMRQGFYERNHCEILQGNARFVDEHTLALDCPDGSVETLTAEKFVIACGSRPYHPTDVDFTHPRIYDSDSILSMHHEPRHVLIYGAGVIGCEYASIFRGMDVKVDLINTRDRLLAFLDQEMSDSLSYHFWNSGVVIRHNEEYEKIEGCDDGVIMHLKSGKKLKADCLLYANGRTGNTDSLALQNIGLETDSRGQLKVNSMYQTAQPHVYAVGDVIGYPSLASAAYDQGRIAAQALVKGEATAHLIEDIPTGIYTIPEISSVGKTEQQLTAMKVPYEVGRAQFKHLARAQIVGMNVGTLKILFHRETKEILGIHCFGERAAEIIHIGQAIMEQKGGGNTIEYFVNTTFNYPTMAEAYRVAALNGLNRLF	4.47 ± 0.55	3.95 ± 0.2	4.17 ± 0.28	4.01 ± 0.21	2.74 ± 0.36	6.09 ± 0.52	10.5 ± 0.61	4.46 ± 0.093	6.87 ± 0.64	6.15 ± 0.82	12.2 ± 0.42	3.85 ± 0.34
MPIHDKSPRPQEFAAVDLGSNSFHMVIARVVDGAMQIIGRLKQRVHLADGLGPDNMLSEEAMTRGLNCLSLFAERLQGFSPASVCIVGTHTLRQALNATDFLKRAEKVIPYPIEIISGNEEARLIFMGVEHTQPEKGRKLVIDIGGGSTELVIGENFEPILVESRRMGCVSFAQLYFPGGVINKENFQRARMAAAQKLETLTWQFRIQGWNVAMGASGTIKAAHEVLMEMGEKDGIITPERLEKLVKEVLRHRNFASLSLPGLSEERKTVFVPGLAILCGVFDALAIRELRLSDGALREGVLYEMEGRFRHQDVRSRTASSLANQYHIDSEQARRVLDTTMQMYEQWREQQPKLAHPQLEALLRWAAMLHEVGLNINHSGLHRHSAYILQNSDLPGFNQEQQLMMATLVRYHRKAIKLDDLPRFTLFKKKQFLPLIQLLRLGVLLNNQRQATTTPPTLTLITDDSHWTLRFPHDWFSQNALVLLDLEKEQEYWEGVAGWRLKIEEESTPEIAA [P0AFL6]	5.76 ± 0.2	5.22 ± 0.12	3.78 ± 0.22	3.68 ± 0.057	2.45 ± 0.086	4.69 ± 0.06	6.58 ± 0.48	3.83 ± 0.3	5.86 ± 0.01	3.96 ± 0.56	6.77 ± 0.37	3.95 ± 0.21
MPIQVLPPQLANQIAAGEVVERPASVVKELVENSLDAGATRIDIDIERGGAKLIRIRDNGCGIKKDELALALARHATSKIASLDDLEAIISLGFRGEALASISSVSRLTLTSRTAEQQEAWQAYAEGRDMNVTVKPAAHPVGTTLEVLDLFYNTPARRKFLRTEKTEFNHIDEIIRRIALARFDVTINLSHNGKIVRQYRAVPEGGQKERRLGAICGTAFLEQALAIEWQHGDLTLRGWVADPNHTTPALAEIQYCYVNGRMMRDRLINHAIRQACEDKLGADQQPAFVLYLEIDPHQVDVNVHPAKHEVRFHQSRLVHDFIYQGVLSVLQQQLETPLPLDDEPQPAPRSIPENRVAAGRNHFAEPAAREPVAPRYTPAPASGSRPAAPWPNAQPGYQKQQGEVYRQLLQTPAPMQKLKAPEPQEPALAANSQSFGRVLTIVHSDCALLERDGNISLLSLPVAERWLRQAQLTPGEAPVCAQPLLIPLRLKVSAEEKSALEKAQSALAELGIDFQSDAQHVTIRAVPLPLRQQNLQILIPELIGYLAKQSVFEPGNIAQWIARNLMSEHAQWSMAQAITLLADVERLCPQLVKTPPGGLLQSVDLHPAIKALKDE	5.64 ± 0.16	5.376 ± 0.017	4.58 ± 0.16	4.59 ± 0.048	3.002 ± 0.009	5.614 ± 0.0069	9.34 ± 0.55	4.635 ± 0.043	8.197 ± 0.054	5.43 ± 0.11	10.2 ± 0.69	5.29 ± 0.063
MPIYQIDGLTPVVPEESFVHPTAVLIGDVILGKGVYVGPNASLRGDFGRIVVKDGANIQDNCVMHGFPEQDTVVGEDGHIGHSAILHGCIIRRNALVGMNAVVMDGAVIGENSIVGASAFVKAKAEMPANYLIVGSPAKAIRELSEQELAWKKQGTHEYQVLVTRCKQTLHQVEPLREIEPGRKRLVFDENLRPKQ	5.05 ± 0.96	4.12 ± 0.18	4.15 ± 0.16	3.9 ± 0.21	3.49 ± 0.39		11.6 ± 2.7	4.19 ± 0.87	6.81	5.81 ± 0.34	12.9 ± 0.92	5.43 ± 0.8
MPKLVTWMNNQRVGELTKLANGAHTFKYAPEWLASRYARPLSLSLPLQRGNITSDAVFNFFDNLLPDSPIVRDRIVKRYHAKSRQPFDLLSEIGRDSVGAVTLIPEDETVTHPIMAWEKLTEARLEEVLTAYKADIPLGMIREENDFRISVAGAQEKTALLRIGNDWCIPKGITPTTHIIKLPIGEIRQPNATLDLSQSVDNEYYCLLLAKELGLNVPDAEIIKAGNVRALAVERFDRRWNAERTVLLRLPQEDMCQTFGLPSSVKYESDGGPGIARIMAFLMGSSEALKDRYDFMKFQVFQWLIGATDGHAKNFSVFIQAGGSYRLTPFYDIISAFPVLGGTGIHISDLKLAMGLNASKGKKTAIDKIYPRHFLATAKVLRFPEVQMHEILSDFARMIPAALDNVKTSLPTDFPENVVTAVESNVLRLHGRLSREYGSK	5.44 ± 0.06		5.63 ± 0.078	5.22 ± 0.39	3 ± 0.061	5.65 ± 0.24	10.8 ± 0.14	5.21 ± 0.73	9.66 ± 1.8	6.37 ± 0.53		5.73 ± 0.54
